Data as given in PMC7356819, “Lanthanide-Dependent Methanol and Formaldehyde Oxidation in Methylobacterium aquaticum Strain 22A” (Microorganisms, 2020).

How the values were obtained:
[1] = target: T1, Hgd (S-hydroxymethyl glutathione dehydrogenase) (Methylobacterium aquaticum, UniProt A0A0C6FVV4); experiment: NADH formation at […] nm in cell-free extract, hgd deletion mutant as control; format: biochemical; conditions: S-hydroxymethylglutathione formed in situ from formaldehyde and glutathione; NAD, sodium phosphate pH 7, premix at 25 °C
T1 construct: gene adhC; native enzyme in cell-free extract of strain 22A; activity absent in the hgd deletion mutant
T1 sequence (A0A0C6FVV4 entry or part of it): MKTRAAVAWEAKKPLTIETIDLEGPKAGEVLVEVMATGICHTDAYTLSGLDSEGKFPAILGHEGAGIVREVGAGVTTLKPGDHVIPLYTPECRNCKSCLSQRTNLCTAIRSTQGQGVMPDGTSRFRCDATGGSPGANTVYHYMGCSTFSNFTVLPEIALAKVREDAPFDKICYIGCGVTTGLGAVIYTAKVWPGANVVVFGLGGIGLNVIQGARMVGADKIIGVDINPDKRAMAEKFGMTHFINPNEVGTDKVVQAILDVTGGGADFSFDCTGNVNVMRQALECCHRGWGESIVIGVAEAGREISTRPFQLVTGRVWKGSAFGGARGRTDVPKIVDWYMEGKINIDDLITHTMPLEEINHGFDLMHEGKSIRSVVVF

purified protein [2] = substrate: CO; experiment: purified protein; format: biochemical, Methylobacterium aquaticum; conditions: PMS and DCPIP as electron acceptors, ammonium chloride, La3+-loaded enzyme (0.58 La per monomer), Tris-HCl pH 9.0, 30 °C
purified protein [3] = substrate: C=O; experiment: purified protein; format: biochemical, Methylobacterium aquaticum; conditions: PMS and DCPIP as electron acceptors, ammonium chloride, La3+-loaded enzyme (0.58 La per monomer), Tris-HCl pH 9.0, 30 °C, formaldehyde prepared from autoclaved paraformaldehyde

Molecule | NADH formation at 340 nm in cell-free extract, hgd deletion mutant as control [1] | Km (purified protein [2]) [mM] | Km (purified protein [3]) [mM]
N[C@@H](CCC(=O)N[C@@H](CSCO)C(=O)NCC(=O)O)C(=O)O [S-hydroxymethyl glutathione] | hgd indeed encodes S-hydroxymethylglutathione dehydrogenase |  | 
XoxF1-His (XoxF1, Ln3+-dependent methanol dehydrogenase) (Methylobacterium aquaticum) (protein, His-tagged (primer-encoded at 3' end, C-terminal), tag kept; Ni-NTA; ca. 60 kDa monomer) NEDVLKRTANPAEQVLQTVDYANTRYSKLDQINAGNVNKLQVAWTFSTGVLRGHEGSPLVVGDVMYVHTPFPNIVYALDLNQDGKILWKYEPKQDPNVIPVMCCDTVNRGLAYADGAIFLHQADTTIVSLDAKSGKVNWSVQNGDPKIGETNTATVLPVKDKLIVGIAGAEYGIRGHITAYDLKTGKQAWRAYNLGPDAEMKIDPEKTTELGKPVGKDSSIKTWEGDQWKTGGASTWGWYSYDPKLNLVYYGTGNPSTWNPKQRPGDNKWSMTIFARDADTGVAKWVYQMTPHDEWDYDGINEMILTDQKIGDKERPLLTHFDRNGFGYTLDRATGELLVAEKYDPAVNWATKVDQDKSSKTYGRPLVVAKYSTDQNGEDTNSKGICPAALGSKDQQPAAYSPKTNLFYVPTNHVCMDYEPFRVSYTPGQPYVGATLSMYPAPNSHGGMGNFIAWDGTAGKIKWSNPEQFSVWSGALATAGDVVFYGTLEGYLKAVDSKTGKELYKFKTPSGIIGNVMTFQHKGKQNIAVLSGVGGWAGIGLAAGLTDPNAGLGAVGGYAALSSYTNLGGQLTVFNLPN |  | 0.03 | 0.34
